{"source": "patent US20240261333A1", "about": "(published 2024)", "binders": {"B1": {"name": "N-terminal FLAG tagged B3GNT2 (enzyme, human, UniProt Q9NY97 1-397, looked up)", "chain": "MSVGRRRIKLLGILMMANVFIYFIMEVSKSSSQEKNGKGEVIIPKEKFWKISTPPEAYWNREQEKLNRQYNPILSMLTNQTGEAGRLSNISHLNYCEPDLRVTSVVTGFNNLPDRFKDFLLYLRCRNYSLLIDQPDKCAKKPFLLLAIKSLTPHFARRQAIRESWGQESNAGNQTVVRVFLLGQTPPEDNHPDLSDMLKFESEKHQDILMWNYRDTFFNLSLKEVLFLRWVSTSCPDTEFVFKGDDDVFVNTHHILNYLNSLSKTKAKDLFIGDVIHNAGPHRDKKLKYYIPEVVYSGLYPPYAGGGGFLYSGHLALRLYHITDQVHLYPIDDVYTGMCLQKLGLVPEKHKGFRTFDIEEKNKNNICSYVDLMLVHSRKPQEMIDIWSQLQSAHLKC", "notes": "FLAG-tagged ORF overexpressed in cells; bait of the co-IP, pulled down with mouse anti-FLAG; also called N-FLAG B3GNT2; N-term FLAG; not shown: N-terminal FLAG tag"}, "B2": {"name": "C-terminal FLAG tagged B3GNT2 (enzyme, human, UniProt Q9NY97 1-397, looked up)", "chain": "B1 chain", "notes": "FLAG-tagged ORF overexpressed in cells; bait of the co-IP, pulled down with mouse anti-FLAG; also called C-FLAG B3GNT2; C-term flag; not shown: C-terminal FLAG tag"}, "B3": {"name": "C-terminal FLAG tagged B3GNT2 (enzyme, human, UniProt Q9NY97 1-397, looked up)", "chain": "B1 chain", "notes": "Bait of the co-IP; pulled down from cell lysate with mouse anti-FLAG antibody; also called C-FLAG B3GNT2; C-term flag; not shown: C-terminal FLAG tag"}}, "key": {"RPS15": {"target": "RPS15 (human, UniProt P62841 2-145)", "assay": "co-IP/MS, anti-FLAG IP of N-FLAG B3GNT2 cell lysate", "description": "(§1) Cells were plated in 10-cm cell culture dishes and grown to 60-80% confluency. For each condition, two biological replicates were harvested for co-IP. Cells were washed with PBS and 4 mL of lysis buffer (20 mM HEPES, 1% Triton X-100, 150 mM NaCl, 1 mM EDTA, and 10% glycerol) containing protease inhibitor cocktail was added. Cells were scraped and lysate was incubated at 4° C. under rotary agitation for 1 h. Lysate was centrifuged at 14,000×g for 10 min at 4° C. Supernatant was transferred to a new tube and an aliquot was taken as the input. […] For Western blots, 10 μg/mL Chicken Anti-FLAG (Aves labs ET-DY100) and IgY control (R&D Systems AB-101-C) antibodies were biotinylated (Thermo Fisher Scientific 90407) and added to the respective conditions. Lysates with antibodies were incubated at 4° C. under rotary agitation overnight. For each mL of lysate, 50 μL of Pierce Protein A/G Magnetic Beads (Mass spectrometry; Thermo Fisher Scientific 88803) or Pierce Streptavidin Magnetic Beads (Western blot; Thermo Fisher Scientific 88817) was washed twice with lysis buffer. Lysates with antibodies were added to the beads and incubated at 4° C. under rotary agitation for 4 h. Beads were washed with lysis buffer 3 times and resuspended in lysis buffer for storage.\n(§2) Magnetic beads were resuspended in 100 mM Tris pH 7.8, reduced, alkylated and digested with trypsin at 37° ° C. overnight. This solution was subjected to solid phase extraction to concentrate the peptides and remove unwanted reagents followed by injection onto a Shimadzu HPLC with fraction collector. Eight fractions were collected and after concentration were injected on a Waters NanoAcquity HPLC equipped with a self-packed Aeris 3 μm C18 analytical column 0.075 mm by 20 cm, (Phenomenex). Peptides were eluted using standard reverse-phase gradients. The effluent from the column was analyzed using a Thermo Orbitrap Elite mass spectrometer (nanospray configuration) operated in a data dependent manner for 54 minutes. The resulting fragmentation spectra were correlated against the known database using Proteome Discover 1.4 (Thermo Fisher Scientific)."}, "RPL24": {"target": "RPL24 (human, UniProt P83731 1-157)", "assay": "co-IP/MS, anti-FLAG IP of N-FLAG B3GNT2 cell lysate", "description": "as §1, §2"}, "RPS3A": {"target": "RPS3A (human, UniProt P61247 2-264)", "assay": "co-IP/MS, anti-FLAG IP of N-FLAG B3GNT2 cell lysate", "description": "as §1, §2"}, "RPL14": {"target": "RPL14 (human, UniProt P50914 2-215)", "assay": "co-IP/MS, anti-FLAG IP of N-FLAG B3GNT2 cell lysate", "description": "as §1, §2"}, "RPL30": {"target": "RPL30 (human, UniProt P62888 1-115)", "assay": "co-IP/MS, anti-FLAG IP of N-FLAG B3GNT2 cell lysate", "description": "as §1, §2"}, "RPS9": {"target": "RPS9 (human, UniProt P46781 2-194)", "assay": "co-IP/MS, anti-FLAG IP of N-FLAG B3GNT2 cell lysate", "description": "as §1, §2"}, "FKBP10": {"target": "T1, FKBP10 (human, UniProt Q96AY3 27-582)", "T1 construct": "also called NP_068758.3 (+1)", "T1 sequence (Q96AY3 27-582 limits assumed)": "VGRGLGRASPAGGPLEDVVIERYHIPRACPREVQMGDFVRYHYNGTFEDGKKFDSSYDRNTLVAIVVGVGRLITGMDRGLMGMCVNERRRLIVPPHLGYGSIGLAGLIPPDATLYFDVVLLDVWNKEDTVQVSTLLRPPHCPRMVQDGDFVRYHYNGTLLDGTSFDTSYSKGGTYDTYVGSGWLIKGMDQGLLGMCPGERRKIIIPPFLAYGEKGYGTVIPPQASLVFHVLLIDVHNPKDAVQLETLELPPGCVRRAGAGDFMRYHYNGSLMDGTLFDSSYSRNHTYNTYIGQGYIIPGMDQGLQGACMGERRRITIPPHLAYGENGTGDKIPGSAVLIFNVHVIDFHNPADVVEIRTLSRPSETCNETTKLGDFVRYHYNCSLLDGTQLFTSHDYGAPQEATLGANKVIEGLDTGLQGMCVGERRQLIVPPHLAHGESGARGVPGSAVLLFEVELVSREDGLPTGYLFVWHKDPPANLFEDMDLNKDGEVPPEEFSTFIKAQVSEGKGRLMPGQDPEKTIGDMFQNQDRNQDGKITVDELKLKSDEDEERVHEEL", "assay": "co-IP/MS, anti-FLAG IP of N-FLAG B3GNT2 cell lysate", "description": "as §1, §2"}, "RPS5": {"target": "RPS5 (human, UniProt P46782 1-204)", "assay": "co-IP/MS, anti-FLAG IP of N-FLAG B3GNT2 cell lysate", "description": "as §1, §2"}, "PRDX2": {"target": "T2, PRDX2 (human, UniProt P32119 2-198)", "T2 construct": "also called NP_005800.3", "T2 sequence (looked up)": "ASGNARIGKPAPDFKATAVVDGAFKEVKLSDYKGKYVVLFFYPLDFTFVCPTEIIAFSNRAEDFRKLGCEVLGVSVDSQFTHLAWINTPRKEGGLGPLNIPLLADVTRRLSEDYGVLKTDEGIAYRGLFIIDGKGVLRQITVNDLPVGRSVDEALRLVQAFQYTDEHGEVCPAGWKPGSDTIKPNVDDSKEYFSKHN", "assay": "co-IP/MS, anti-FLAG IP of N-FLAG B3GNT2 cell lysate", "description": "as §1, §2"}, "PRDX1": {"target": "T3, PRDX1 (human, UniProt Q06830 2-199)", "T3 construct": "also called NP_859048.1", "T3 sequence (looked up)": "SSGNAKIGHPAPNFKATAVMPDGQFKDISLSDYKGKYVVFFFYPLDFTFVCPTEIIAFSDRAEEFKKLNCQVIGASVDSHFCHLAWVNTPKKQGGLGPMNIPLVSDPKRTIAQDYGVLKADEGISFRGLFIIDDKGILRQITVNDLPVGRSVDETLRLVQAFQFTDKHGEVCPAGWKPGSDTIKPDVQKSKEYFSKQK", "assay": "co-IP/MS, anti-FLAG IP of N-FLAG B3GNT2 cell lysate", "description": "as §1, §2"}, "TGM3": {"target": "T4, TGM3 (human, UniProt Q08188 2-693, limits assumed)", "T4 construct": "also called NP_003236.3", "T4 sequence (looked up)": "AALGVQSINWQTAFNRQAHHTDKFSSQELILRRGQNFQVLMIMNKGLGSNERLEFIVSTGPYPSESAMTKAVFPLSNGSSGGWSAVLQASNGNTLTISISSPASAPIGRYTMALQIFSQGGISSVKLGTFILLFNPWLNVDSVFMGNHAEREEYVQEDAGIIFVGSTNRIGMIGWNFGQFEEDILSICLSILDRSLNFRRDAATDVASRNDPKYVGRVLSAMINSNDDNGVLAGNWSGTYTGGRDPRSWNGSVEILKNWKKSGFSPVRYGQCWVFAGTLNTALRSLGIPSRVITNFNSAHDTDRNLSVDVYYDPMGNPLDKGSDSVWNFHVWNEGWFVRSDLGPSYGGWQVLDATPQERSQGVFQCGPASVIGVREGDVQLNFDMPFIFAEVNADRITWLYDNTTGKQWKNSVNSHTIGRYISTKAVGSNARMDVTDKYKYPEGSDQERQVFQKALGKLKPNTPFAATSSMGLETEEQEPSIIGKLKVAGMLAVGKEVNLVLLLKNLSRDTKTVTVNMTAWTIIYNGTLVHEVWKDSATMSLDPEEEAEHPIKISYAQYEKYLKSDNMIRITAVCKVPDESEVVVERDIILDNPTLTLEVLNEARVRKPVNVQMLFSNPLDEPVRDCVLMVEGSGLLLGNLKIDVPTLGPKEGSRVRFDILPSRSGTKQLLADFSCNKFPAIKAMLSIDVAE", "assay": "co-IP/MS, anti-FLAG IP of C-FLAG B3GNT2 cell lysate", "description": "as §1, §2"}, "PIP": {"target": "T5, PIP (human, UniProt P12273 29-146)", "T5 construct": "also called NP_002643.1", "T5 sequence (looked up)": "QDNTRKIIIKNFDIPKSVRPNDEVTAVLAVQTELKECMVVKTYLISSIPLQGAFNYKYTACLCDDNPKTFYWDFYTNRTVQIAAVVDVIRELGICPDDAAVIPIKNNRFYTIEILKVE", "assay": "co-IP/MS, anti-FLAG IP of C-FLAG B3GNT2 cell lysate", "description": "as §1, §2"}, "RPS12": {"target": "RPS12 (human, UniProt P25398 2-132)", "assay": "co-IP/MS, anti-FLAG IP of C-FLAG B3GNT2 cell lysate", "description": "as §1, §2"}, "RPS7": {"target": "RPS7 (human, UniProt P62081 1-194)", "assay": "co-IP/MS, anti-FLAG IP of C-FLAG B3GNT2 cell lysate", "description": "as §1, §2"}, "PCBP1": {"target": "T6, PCBP1 (human, UniProt Q15365 1-356)", "T6 construct": "also called NP_006187.2", "T6 sequence (Q15365 whole entry)": "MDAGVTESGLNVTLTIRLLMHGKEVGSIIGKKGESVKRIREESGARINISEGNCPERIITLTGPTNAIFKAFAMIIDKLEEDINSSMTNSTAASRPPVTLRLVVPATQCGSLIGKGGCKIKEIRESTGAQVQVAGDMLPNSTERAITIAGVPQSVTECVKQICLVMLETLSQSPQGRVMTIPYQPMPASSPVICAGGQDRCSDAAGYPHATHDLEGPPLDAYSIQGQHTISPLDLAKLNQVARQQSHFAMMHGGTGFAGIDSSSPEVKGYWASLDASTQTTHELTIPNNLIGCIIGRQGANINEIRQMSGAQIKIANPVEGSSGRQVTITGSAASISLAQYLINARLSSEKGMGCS", "assay": "co-IP/MS, anti-FLAG IP of C-FLAG B3GNT2 cell lysate", "description": "as §1, §2"}, "CAPZA1": {"target": "CAPZA1 (human, UniProt P52907 2-286)", "assay": "co-IP/MS, anti-FLAG IP of C-FLAG B3GNT2 cell lysate", "description": "as §1, §2"}, "LRP1": {"target": "T7, LRP1 (human, UniProt Q07954 20-4544, limits assumed)", "T7 construct": "also called NP_002323.2 (+1)", "assay": "co-IP/MS, anti-FLAG IP of C-FLAG B3GNT2 cell lysate", "description": "as §1, §2"}, "PSMA5": {"target": "T8, PSMA5 (human, UniProt P28066 1-241)", "T8 construct": "also called NP_002781.2", "T8 sequence (P28066 whole entry)": "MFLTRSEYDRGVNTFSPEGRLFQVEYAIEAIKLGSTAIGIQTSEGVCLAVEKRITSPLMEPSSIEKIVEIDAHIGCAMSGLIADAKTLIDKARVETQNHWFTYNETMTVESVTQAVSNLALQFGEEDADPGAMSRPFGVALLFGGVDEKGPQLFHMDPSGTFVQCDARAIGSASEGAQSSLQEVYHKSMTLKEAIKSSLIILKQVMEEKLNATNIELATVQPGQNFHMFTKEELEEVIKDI", "assay": "anti-FLAG co-IP from lysate of C-FLAG B3GNT2 cells, mass spectrometry", "description": "as §1, §2"}, "PSMC2": {"target": "T9, PSMC2 (human, UniProt P35998 2-433)", "T9 construct": "also called NP_002794.1", "T9 sequence (looked up)": "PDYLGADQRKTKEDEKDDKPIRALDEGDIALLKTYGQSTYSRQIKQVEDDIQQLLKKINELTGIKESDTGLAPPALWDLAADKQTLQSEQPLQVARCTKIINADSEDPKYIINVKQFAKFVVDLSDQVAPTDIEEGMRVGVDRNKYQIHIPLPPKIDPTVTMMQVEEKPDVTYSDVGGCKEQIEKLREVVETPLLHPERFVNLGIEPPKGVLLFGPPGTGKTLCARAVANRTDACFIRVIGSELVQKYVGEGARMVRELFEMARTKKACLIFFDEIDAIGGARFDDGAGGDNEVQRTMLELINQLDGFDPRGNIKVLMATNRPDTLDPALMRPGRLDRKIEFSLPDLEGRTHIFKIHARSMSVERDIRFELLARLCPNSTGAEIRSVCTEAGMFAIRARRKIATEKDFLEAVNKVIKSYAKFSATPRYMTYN", "assay": "anti-FLAG co-IP from lysate of C-FLAG B3GNT2 cells, mass spectrometry", "description": "as §1, §2"}, "PSMB4": {"target": "T10, PSMB4 (human, UniProt P28070 46-264)", "T10 construct": "also called NP_002787.2", "T10 sequence (P28070 46-264 limits assumed)": "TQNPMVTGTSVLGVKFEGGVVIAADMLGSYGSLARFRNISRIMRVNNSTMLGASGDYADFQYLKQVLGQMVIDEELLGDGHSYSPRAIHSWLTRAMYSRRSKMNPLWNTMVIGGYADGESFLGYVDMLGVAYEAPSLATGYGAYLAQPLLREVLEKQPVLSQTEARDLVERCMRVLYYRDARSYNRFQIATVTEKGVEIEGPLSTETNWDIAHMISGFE", "assay": "anti-FLAG co-IP from lysate of C-FLAG B3GNT2 cells, mass spectrometry", "description": "as §1, §2"}, "ERP29": {"target": "T11, ERP29 (human, UniProt P30040 33-261)", "T11 construct": "also called NP_006808.1", "assay": "anti-FLAG co-IP from lysate of C-FLAG B3GNT2 cells, mass spectrometry", "description": "as §1, §2"}}, "data": [{"binder": "B1", "values": [{"measurement": "co-IP mass spectrometry count", "setting": "RPS15", "result": 7}, {"measurement": "co-IP mass spectrometry count", "setting": "RPL24", "result": 4}, {"measurement": "co-IP mass spectrometry count", "setting": "RPS3A", "result": 12}, {"measurement": "co-IP mass spectrometry count", "setting": "RPL14", "result": 11}, {"measurement": "co-IP mass spectrometry count", "setting": "RPL30", "result": 8}, {"measurement": "co-IP mass spectrometry count", "setting": "RPS9", "result": 2}, {"measurement": "co-IP mass spectrometry count", "setting": "FKBP10", "result": 0}, {"measurement": "co-IP mass spectrometry count", "setting": "RPS5", "result": 4}, {"measurement": "co-IP mass spectrometry count", "setting": "PRDX2", "result": 9}, {"measurement": "co-IP mass spectrometry count", "setting": "PRDX1", "result": 8}]}, {"binder": "B2", "values": [{"measurement": "co-IP mass spectrometry count", "setting": "TGM3", "result": 5}, {"measurement": "co-IP mass spectrometry count", "setting": "PIP", "result": 3}, {"measurement": "co-IP mass spectrometry count", "setting": "RPS12", "result": 8}, {"measurement": "co-IP mass spectrometry count", "setting": "RPS7", "result": 8}, {"measurement": "co-IP mass spectrometry count", "setting": "PCBP1", "result": 4}, {"measurement": "co-IP mass spectrometry count", "setting": "CAPZA1", "result": 0}, {"measurement": "co-IP mass spectrometry count", "setting": "LRP1", "result": 0}]}, {"binder": "B3", "values": [{"measurement": "co-IP mass spectrometry count", "setting": "PSMA5", "result": 0}, {"measurement": "co-IP mass spectrometry count", "setting": "PSMC2", "result": 0}, {"measurement": "co-IP mass spectrometry count", "setting": "PSMB4", "result": 0}, {"measurement": "co-IP mass spectrometry count", "setting": "ERP29", "result": 0}]}]}
